Results reported in patent US20250277054A1.

Key:
[1] = molecular target: human PSMA on human prostate cancer cells (LNCaP, C4-2, 22Rv1) (human) (UniProt Q04609); test: flow cytometry on 22Rv1 cells (PSMA low)
[2] = molecular target: human PSMA on human prostate cancer cells (LNCaP, C4-2, 22Rv1) (human) (UniProt Q04609); test: flow cytometry on C4-2 cells (PSMA high)
[3] = molecular target: human PSMA on human prostate cancer cells (LNCaP, C4-2, 22Rv1) (human) (UniProt Q04609); test: flow cytometry on LNCaP cells (PSMA high)
[4] = molecular target: Mouse PSMA.ECD.His (Acro) (mouse) (UniProt O35409); test: ELISA, coated mouse PSMA protein (His tag)
Mouse PSMA.ECD.His (Acro) (mouse), sequence (O35409 45-752): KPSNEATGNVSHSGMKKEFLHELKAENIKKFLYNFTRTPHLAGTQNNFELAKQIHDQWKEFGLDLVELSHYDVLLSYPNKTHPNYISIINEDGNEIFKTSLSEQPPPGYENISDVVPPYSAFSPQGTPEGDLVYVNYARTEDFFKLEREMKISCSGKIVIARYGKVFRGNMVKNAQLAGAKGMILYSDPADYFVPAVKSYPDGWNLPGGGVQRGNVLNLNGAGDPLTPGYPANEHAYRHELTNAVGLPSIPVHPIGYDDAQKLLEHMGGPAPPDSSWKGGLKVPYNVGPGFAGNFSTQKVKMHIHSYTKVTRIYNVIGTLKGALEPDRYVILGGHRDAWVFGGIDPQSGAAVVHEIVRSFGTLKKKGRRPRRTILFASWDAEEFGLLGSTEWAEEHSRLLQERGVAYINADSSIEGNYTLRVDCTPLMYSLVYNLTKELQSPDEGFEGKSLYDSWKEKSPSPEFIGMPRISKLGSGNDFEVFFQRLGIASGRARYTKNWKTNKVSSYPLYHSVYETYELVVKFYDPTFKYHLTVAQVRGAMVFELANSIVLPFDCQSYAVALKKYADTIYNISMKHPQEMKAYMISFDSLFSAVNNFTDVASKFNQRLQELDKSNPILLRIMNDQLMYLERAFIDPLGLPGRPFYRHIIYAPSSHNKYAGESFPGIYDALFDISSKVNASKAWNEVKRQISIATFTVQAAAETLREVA

[5] = molecular target: Human PSMA.ECD.His (Acro) (human) (UniProt Q04609); test: ELISA, coated human PSMA protein (His tag)
Human PSMA.ECD.His (Acro) (human), sequence (Q04609 44-750): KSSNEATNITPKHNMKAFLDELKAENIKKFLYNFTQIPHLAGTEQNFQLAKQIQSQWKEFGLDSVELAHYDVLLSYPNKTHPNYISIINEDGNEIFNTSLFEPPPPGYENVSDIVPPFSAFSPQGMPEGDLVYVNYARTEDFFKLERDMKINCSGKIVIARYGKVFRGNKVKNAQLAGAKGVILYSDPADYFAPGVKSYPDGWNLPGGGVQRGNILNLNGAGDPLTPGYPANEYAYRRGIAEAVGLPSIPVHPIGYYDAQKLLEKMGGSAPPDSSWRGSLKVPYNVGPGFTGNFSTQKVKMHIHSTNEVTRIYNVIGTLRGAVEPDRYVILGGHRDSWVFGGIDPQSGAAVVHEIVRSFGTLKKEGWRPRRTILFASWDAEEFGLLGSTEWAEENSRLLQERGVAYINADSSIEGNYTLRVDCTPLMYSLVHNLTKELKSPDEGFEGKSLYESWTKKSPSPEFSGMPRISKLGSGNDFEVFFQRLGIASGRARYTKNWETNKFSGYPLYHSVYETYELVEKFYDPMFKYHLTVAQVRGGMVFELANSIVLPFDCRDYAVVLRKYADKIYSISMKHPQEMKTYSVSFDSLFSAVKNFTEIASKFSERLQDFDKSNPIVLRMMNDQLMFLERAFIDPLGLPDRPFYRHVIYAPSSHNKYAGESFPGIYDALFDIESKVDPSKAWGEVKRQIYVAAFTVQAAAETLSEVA

[6] = molecular target: full-length cynomolgus PSMA on Flp-in CHO cells (WBP3xx042-FlpinCHO.cPro1.B7) (cynomolgus); test: flow cytometry on FlpInCHO-cyno PSMA cells
[7] = molecular target: Cyno PSMA.ECD.His (Acro) (cynomolgus); test: ELISA, coated cynomolgus PSMA protein (His tag)
[8] = molecular target: Biotinylated Human PSMA/FOLH1 Protein, His, Avitag (human) (UniProt Q04609); test: SPR (Biacore 8K), biotinylated human PSMA captured on streptavidin chip, antibody injected, single-cycle, 1:1 model
Biotinylated Human PSMA/FOLH1 Protein, His, Avitag (human), sequence (Q04609 44-750 limits assumed): as the sequence (Q04609 44-750) above

[9] = molecular target: human PSMA on human prostate cancer cells (LNCaP, C4-2, 22Rv1) (human) (UniProt Q04609); test: flow cytometry on LNCaP cells
[10] = molecular target: Human PSMA.ECD.His (Acro) (human) (UniProt Q04609); test: ELISA, human PSMA ECD captured by anti-His antibody
[11] = molecular target: full-length cynomolgus PSMA on Flp-in CHO cells (WBP3xx042-FlpinCHO.cPro1.B7) (cynomolgus); test: flow cytometry on cynomolgus PSMA-expressing CHO cells
[12] = molecular target: Cyno PSMA.ECD.His (Acro) (cynomolgus); test: ELISA, cynomolgus PSMA ECD captured by anti-His antibody
[13] = molecular target: Cyno PSMA.ECD.His (Acro) (cynomolgus); test: SPR (Biacore 8K), antibody captured by anti-human IgG Fc, PSMA injected, 1:1 model
[14] = molecular target: Human PSMA.ECD.His (Acro) (human) (UniProt Q04609); test: as above

human PSMA on human prostate cancer cells (LNCaP, C4-2, 22Rv1) (human), sequence (Q04609 whole entry, the tested form may be a part): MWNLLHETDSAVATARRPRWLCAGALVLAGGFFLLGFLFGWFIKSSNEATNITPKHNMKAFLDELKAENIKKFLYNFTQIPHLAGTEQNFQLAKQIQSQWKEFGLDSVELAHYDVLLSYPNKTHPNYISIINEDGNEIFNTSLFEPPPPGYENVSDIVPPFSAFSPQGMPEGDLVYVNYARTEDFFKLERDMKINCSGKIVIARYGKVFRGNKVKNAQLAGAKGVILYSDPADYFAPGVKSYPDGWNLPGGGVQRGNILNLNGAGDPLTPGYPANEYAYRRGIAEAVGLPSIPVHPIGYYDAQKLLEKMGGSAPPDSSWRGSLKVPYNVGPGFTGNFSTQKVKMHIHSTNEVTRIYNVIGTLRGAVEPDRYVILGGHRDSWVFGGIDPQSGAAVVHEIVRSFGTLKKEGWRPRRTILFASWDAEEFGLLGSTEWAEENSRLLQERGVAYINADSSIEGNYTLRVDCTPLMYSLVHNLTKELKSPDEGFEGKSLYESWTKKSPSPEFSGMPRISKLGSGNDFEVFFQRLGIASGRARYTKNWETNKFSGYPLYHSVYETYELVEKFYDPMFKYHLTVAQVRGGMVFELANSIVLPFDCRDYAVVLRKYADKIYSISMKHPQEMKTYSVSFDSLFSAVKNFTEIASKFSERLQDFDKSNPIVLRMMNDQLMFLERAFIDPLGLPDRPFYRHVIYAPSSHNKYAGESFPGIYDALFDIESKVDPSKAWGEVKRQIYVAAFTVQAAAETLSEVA

Substance | EC50 [1] | Max MFI [1] | EC50 [2] | Max MFI [2] | EC50 [3] | Max MFI [3] | Max OD450-540 [4] | Max OD450-540 [5] | Max MFI [6] | Max OD450-540 [7] | Kd [8] | Max MFI [9] | Max OD450 [10] | EC50 [11] | Max MFI [11] | EC50 [12] | Max OD450 [12] | also measured
AMG 160 (BMK2) (bispecific antibody) | 46.1 nM | 5910 MFI | 34.4 nM | 34200 MFI | 30.8 nM | 19100 MFI | 0.09 OD450-540 | 3.52 OD450-540 | 62900 MFI | 3.57 OD450-540 | 36.7 nM | – | – | – | – | – | – | EC50 [5]: 0.22 nM; EC50 [6]: 55.8 nM; EC50 [7]: 0.48 nM
J591 antibody (W3XX042-BMK1) | – | – | – | – | – | – | – | – | – | – | – | 3590 MFI | 2.34 OD450 | 3.63 nM | 93300 MFI | 0.011 nM | 2.79 OD450 | EC50 [9]: 0.48 nM; EC50 [10]: 0.077 nM; Kd [13]: 1.82 nM; koff [13]: 0.000192 s⁻¹; Kd [14]: 1.27 nM
AMG 340/TNB-585 (BMK1) (bispecific antibody) | 174 nM | 5280 MFI | 35.3 nM | 34700 MFI | 55.7 nM | 16300 MFI | 0.05 OD450-540 | – | 2870 MFI | – | 32.3 nM | – | – | – | – | – | – | koff [8]: 0.00378 s⁻¹; kon [8]: 117000 M⁻¹ s⁻¹
isotype hIgG4 control (antibody) | – | 372 MFI | – | 138 MFI | – | 181 MFI | 0.09 OD450-540 | 0.04 OD450-540 | 19.9 MFI | 0.04 OD450-540 | – | – | – | – | – | – | – | –
human IgG isotype antibody (negative control) | – | – | – | – | – | – | – | – | – | – | – | 47.7 MFI | 0.263 OD450 | > 100 nM | 34.8 MFI | > 10 nM | 0.258 OD450 | EC50 [4]: > 100 nM; Max OD450 [4]: 0.093 OD450
